# Results reported in patent US10253076B2, “Peptides and combination of peptides for use in immunotherapy against ovarian cancer and other cancers” (immatics biotechnologies GmbH, priority 2015, dated 2019).
# Target: HLA-A*02:01 (Homo sapiens, UniProt P04439, D140Y/D185E/D98H/E176V/E277Q/G131W/G231S/I119V/I121R/I166T/I218V/L300P/L318F/N151K/N90K/P208A/P217A/Q86G/Q94H/R138H/R169H/T345S)
# Assay: MHC binding assay (UV-ligand exchange, beta2m ELISA, peptide exchange yield)
# Conditions: binding of HLA-class I restricted peptides to HLA-A*02:01, ranged by peptide exchange yield (UV-ligand exchange, β2m ELISA)
# Outline: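 Peptide–HLA-A*02:01 complexes made by UV-mediated exchange of a photocleavable peptide with the test peptide. Exchange products diluted 100-fold on streptavidin-coated plates, 1 h at 37°C, then HRP anti-β2m 1 h at 37°C; TMB read at 450 nm to give exchange yield.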
row,Substance,Peptide exchange
1,616 (VLIDEVESL; listed as Homo sapiens) [compound 616],″+++″ (≥50% = +++)
2,154 (ALDDGTPAL; listed as Homo sapiens) [compound 154],″++″ (≥20% = ++)
3,231 (FLSPQQPPLLL; listed as Homo sapiens) [compound 231],″++″ (≥20% = ++)
4,133 (KVLSNIHTV; listed as Homo sapiens) [compound 133],″++″ (≥20% = ++)
5,364 (LLQNEQFEL; listed as Homo sapiens) [compound 364],″+++″ (≥50% = +++)
6,558 (GLLENIPRV; listed as Homo sapiens) [compound 558],″+++″ (≥50% = +++)
7,353 (YLFEMDSSL; listed as Homo sapiens) [compound 353],″++″ (≥20% = ++)
8,592 (RLLSAAENFL; listed as Homo sapiens) [compound 592],″+++″ (≥50% = +++)
9,393 (GLLDTQTSQVLTA; listed as Homo sapiens) [compound 393],″++″ (≥20% = ++)
10,391 (YVYPQRLNFV; listed as Homo sapiens) [compound 391],″+++″ (≥50% = +++)
11,575 (YLISQVEGHQV; listed as Homo sapiens) [compound 575],″+++″ (≥50% = +++)
12,208 (KISPVTFSV; listed as Homo sapiens) [compound 208],″+++″ (≥50% = +++)
13,325 (FIMPATVADATAV; listed as Homo sapiens) [compound 325],″+++″ (≥50% = +++)
14,397 (YLFGERLLEC; listed as Homo sapiens) [compound 397],″+++″ (≥50% = +++)
15,551 (KLYESLLPFA; listed as Homo sapiens) [compound 551],″+++″ (≥50% = +++)
16,168 (KILDADIQL; listed as Homo sapiens) [compound 168],″++++″ (≥75% = ++++)
17,211 (LLWPGAALL; listed as Homo sapiens) [compound 211],″++″ (≥20% = ++)
18,484 (SLIEKVTQL; listed as Homo sapiens) [compound 484],″+++″ (≥50% = +++)
19,542 (RVWDISTVSSV; listed as Homo sapiens) [compound 542],″+++″ (≥50% = +++)
20,621 (VLMDRLPSLL; listed as Homo sapiens) [compound 621],″++++″ (≥75% = ++++)

row,Substance,Peptide exchange
1,331 (KVDTVWVNV; listed as Homo sapiens) [compound 331],″+++″ (≥50% = +++)
2,365 (YVIDQGETDVYV; listed as Homo sapiens) [compound 365],″+++″ (≥50% = +++)
3,518 (KLNAEVACV; listed as Homo sapiens) [compound 518],″+++″ (≥50% = +++)
4,169 (NLPEYLPFV; listed as Homo sapiens) [compound 169],″+++″ (≥50% = +++)
5,164 (ALLPQPKNLTV; listed as Homo sapiens) [compound 164],″+++″ (≥50% = +++)
6,47 (ILLSVPLLVV; listed as Homo sapiens) [compound 47],″++″ (≥20% = ++)
7,175 (YLFENISQL; listed as Homo sapiens) [compound 175],″+++″ (≥50% = +++)
8,313 (VLFDDELLMV; listed as Homo sapiens) [compound 313],″+++″ (≥50% = +++)
9,46 (ILTEENIHL; listed as Homo sapiens) [compound 46],″+++″ (≥50% = +++)
10,582 (TLCDVILMV; listed as Homo sapiens) [compound 582],″+++″ (≥50% = +++)
11,95 (SVIPQIQKV; listed as Homo sapiens) [compound 95],″+++″ (≥50% = +++)
12,275 (YLVYILNEL; listed as Homo sapiens) [compound 275],″++″ (≥20% = ++)
13,352 (SLLELLHIYV; listed as Homo sapiens) [compound 352],″+++″ (≥50% = +++)
14,345 (VIWKALIHL; listed as Homo sapiens) [compound 345],″+++″ (≥50% = +++)
15,340 (ALLSMTFPL; listed as Homo sapiens) [compound 340],″++++″ (≥75% = ++++)
16,17 (GLLPGDRLVSV; listed as Homo sapiens) [compound 17],″+++″ (≥50% = +++)
17,301 (FLVEDLVDSL; listed as Homo sapiens) [compound 301],″+++″ (≥50% = +++)
18,480 (ALLEDSCHYL; listed as Homo sapiens) [compound 480],″+++″ (≥50% = +++)
19,324 (FLYDEIEAEV; listed as Homo sapiens) [compound 324],″+++″ (≥50% = +++)
20,426 (RLADKSVLV; listed as Homo sapiens) [compound 426],″+++″ (≥50% = +++)

row,Substance,Peptide exchange
1,233 (VLSETLYEL; listed as Homo sapiens) [compound 233],″++″ (≥20% = ++)
2,40 (TLLVKVFSV; listed as Homo sapiens) [compound 40],″+++″ (≥50% = +++)
3,178 (ALTEIAFVV; listed as Homo sapiens) [compound 178],″++++″ (≥75% = ++++)
4,604 (SILDRDDIFV; listed as Homo sapiens) [compound 604],″+++″ (≥50% = +++)
5,246 (LLWEVVSQL; listed as Homo sapiens) [compound 246],″+++″ (≥50% = +++)
6,28 (QLLDETSAITL; listed as Homo sapiens) [compound 28],″+++″ (≥50% = +++)
7,32 (KLDDLTQDLTV; listed as Homo sapiens) [compound 32],″++″ (≥20% = ++)
8,344 (YLQDQHLLLTV; listed as Homo sapiens) [compound 344],″+++″ (≥50% = +++)
9,236 (GLLEAKVSL; listed as Homo sapiens) [compound 236],″+++″ (≥50% = +++)
10,297 (VLADIELAQA; listed as Homo sapiens) [compound 297],″+++″ (≥50% = +++)
11,86 (NLIGKIENV; listed as Homo sapiens) [compound 86],″+++″ (≥50% = +++)
12,598 (FLFPHSVLV; listed as Homo sapiens) [compound 598],″+++″ (≥50% = +++)
13,327 (GLAPFTEGISFV; listed as Homo sapiens) [compound 327],″+++″ (≥50% = +++)
14,273 (NLFQSVREV; listed as Homo sapiens) [compound 273],″++″ (≥20% = ++)
15,429 (GLVNDLARV; listed as Homo sapiens) [compound 429],″++″ (≥20% = ++)
16,123 (NLWDLTDASVV; listed as Homo sapiens) [compound 123],″+++″ (≥50% = +++)
17,4 (GIMEHITKI; listed as Homo sapiens) [compound 4],″++++″ (≥75% = ++++)
18,560 (ALWDIETGQQTTT; listed as Homo sapiens) [compound 560],″+++″ (≥50% = +++)
